Test results as given in PMC4063181 (Journal of the American Chemical Society, 2014).
Numbering of substitutions follows the chain as printed. Numbers in names are those of the source.

B1: EmrE S107C mutant devoid of wild-type Cys residues (C39S, C41S, C95S, S107C) (natural protein)
chain: MNPYIYLGGAILAEVIGTTLMKFSEGFTRLWPSVGTIISYSASFWLLAQTLAYIPTGIAYAIWSGVGIVLISLLSWGFFGQRLDLPAIIGMMLISAGVLIINLLSRCTPH
B2: EmrE (wild type) (natural protein)
chain: B1 chain with S39C, S41C, S95C, C107S

Experiments:
cross-linking = molecular target: the molecule itself; assay: cross-linking
solution NMR = molecular target: the molecule itself; assay: solution NMR

Row | Protein | stoichiometry N (cross-linking) | binding result (solution NMR)
1 | B1 | 2 | –
2 | B2 | – | binds
